We go through 15 molecules from patent US20240400708A1.

As a reminder, the Kd is the concentration at which binding is half-saturated. High values mean a looser complex, low ones a tighter complex.

In assay [1] the target is feline FcRn complex (FcRn-α subunit and β-microglobulin), biotin labeled (feline). The assay is described as follows: SPR, pH 6.
Assay [2] shares this target. Description: SPR, pH 7.4.

B1: feline IgG1a S428Y/S434Y (antibody, part only; not given: Variable domains, not shown: another chain or arm of the molecule)
constant: ASTTAPSVFPLAPSCGTTSGATVALACLVLGYFPEPVTVSWNSGALTSGVHTFPAVLQASGLYSLSSMVTVPSSRWLSDTFTCNVAHPPSNTKVDKTVRKTDHPPGPKPCDCPKCPPPEMLGGPSIFIFPPKPKDTLSISRTPEVTCLVVDLGPDDSDVQITWFVDNTQVYTAKTSPREEQFNSTYRVVSVLPILHQDWLKGKEFKCKVNSKSLPSPIERTISKAKGQPHEPQVYVLPPAQEELSRNKVSVTCLIKSFHPPDIAVEWEITGQPEPENNYRTTPPQLDSDGTYFVYSKLSVDRSHWQRGNTYTCSVYHEALHYHHTQKSLTQSPGK
With B1, the Kd worked out at 4.65 nM in assay [1] and 235 nM in assay [2].

B2: feline IgG1a S252Y/D312P/S434Y (antibody, part only; not given: Variable domains, not shown: another chain or arm of the molecule; small tags and cut ends)
constant: ASTTAPSVFPLAPSCGTTSGATVALACLVLGYFPEPVTVSWNSGALTSGVHTFPAVLQASGLYSLSSMVTVPSSRWLSDTFTCNVAHPPSNTKVDKTVRKTDHPPGPKPCDCPKCPPPEMLGGPSIFIFPPKPKDTLYISRTPEVTCLVVDLGPDDSDVQITWFVDNTQVYTAKTSPREEQFNSTYRVVSVLPILHQPWLKGKEFKCKVNSKSLPSPIERTISKAKGQPHEPQVYVLPPAQEELSRNKVSVTCLIKSFHPPDIAVEWEITGQPEPENNYRTTPPQLDSDGTYFVYSKLSVDRSHWQRGNTYTCSVSHEALHYHHTQKSLTQSPGK
With B2, the dissociation constant Kd in assay [1] was determined as 0.0221 nM; in assay [2] it was 2.26 nM.

B3: feline IgG1a S252Y/S434R (antibody, part only; not given: Variable domains, not shown: another chain or arm of the molecule; small tags and cut ends)
constant: ASTTAPSVFPLAPSCGTTSGATVALACLVLGYFPEPVTVSWNSGALTSGVHTFPAVLQASGLYSLSSMVTVPSSRWLSDTFTCNVAHPPSNTKVDKTVRKTDHPPGPKPCDCPKCPPPEMLGGPSIFIFPPKPKDTLYISRTPEVTCLVVDLGPDDSDVQITWFVDNTQVYTAKTSPREEQFNSTYRVVSVLPILHQDWLKGKEFKCKVNSKSLPSPIERTISKAKGQPHEPQVYVLPPAQEELSRNKVSVTCLIKSFHPPDIAVEWEITGQPEPENNYRTTPPQLDSDGTYFVYSKLSVDRSHWQRGNTYTCSVSHEALHRHHTQKSLTQSPGK
B3: the Kd in assay [1] worked out at 4.12 nM; in assay [2] it was 10900 nM.

B4: feline IgG1a S252Y/L314K/S434Y (antibody, part only; not given: Variable domains, not shown: another chain or arm of the molecule; small tags and cut ends)
constant: ASTTAPSVFPLAPSCGTTSGATVALACLVLGYFPEPVTVSWNSGALTSGVHTFPAVLQASGLYSLSSMVTVPSSRWLSDTFTCNVAHPPSNTKVDKTVRKTDHPPGPKPCDCPKCPPPEMLGGPSIFIFPPKPKDTLYISRTPEVTCLVVDLGPDDSDVQITWFVDNTQVYTAKTSPREEQFNSTYRVVSVLPILHQDWKKGKEFKCKVNSKSLPSPIERTISKAKGQPHEPQVYVLPPAQEELSRNKVSVTCLIKSFHPPDIAVEWEITGQPEPENNYRTTPPQLDSDGTYFVYSKLSVDRSHWQRGNTYTCSVSHEALHYHHTQKSLTQSPGK
Take B4: the Kd in assay [1] was 0.0496 nM; in assay [2], 2.85 nM.

B5: feline IgG1a S428Y/Q311W/S434Y (antibody, part only; not given: Variable domains, not shown: another chain or arm of the molecule; small tags and cut ends)
constant: ASTTAPSVFPLAPSCGTTSGATVALACLVLGYFPEPVTVSWNSGALTSGVHTFPAVLQASGLYSLSSMVTVPSSRWLSDTFTCNVAHPPSNTKVDKTVRKTDHPPGPKPCDCPKCPPPEMLGGPSIFIFPPKPKDTLSISRTPEVTCLVVDLGPDDSDVQITWFVDNTQVYTAKTSPREEQFNSTYRVVSVLPILHWDWLKGKEFKCKVNSKSLPSPIERTISKAKGQPHEPQVYVLPPAQEELSRNKVSVTCLIKSFHPPDIAVEWEITGQPEPENNYRTTPPQLDSDGTYFVYSKLSVDRSHWQRGNTYTCSVYHEALHYHHTQKSLTQSPGK
On to B5, for which the Kd in assay [1] was found to be 3.8 nM; in assay [2], 1510 nM.

B6: feline IgG1a S428Y/D312P/S434Y (antibody, part only; not given: Variable domains, not shown: another chain or arm of the molecule; small tags and cut ends)
constant: ASTTAPSVFPLAPSCGTTSGATVALACLVLGYFPEPVTVSWNSGALTSGVHTFPAVLQASGLYSLSSMVTVPSSRWLSDTFTCNVAHPPSNTKVDKTVRKTDHPPGPKPCDCPKCPPPEMLGGPSIFIFPPKPKDTLSISRTPEVTCLVVDLGPDDSDVQITWFVDNTQVYTAKTSPREEQFNSTYRVVSVLPILHQPWLKGKEFKCKVNSKSLPSPIERTISKAKGQPHEPQVYVLPPAQEELSRNKVSVTCLIKSFHPPDIAVEWEITGQPEPENNYRTTPPQLDSDGTYFVYSKLSVDRSHWQRGNTYTCSVYHEALHYHHTQKSLTQSPGK
With B6, the dissociation constant (Kd) in assay [1] turned out to be 1.48 nM; in assay [2], 864 nM.

B7: feline IgG1a S252F/S434R (antibody, part only; not given: Variable domains, not shown: another chain or arm of the molecule; small tags and cut ends)
constant: ASTTAPSVFPLAPSCGTTSGATVALACLVLGYFPEPVTVSWNSGALTSGVHTFPAVLQASGLYSLSSMVTVPSSRWLSDTFTCNVAHPPSNTKVDKTVRKTDHPPGPKPCDCPKCPPPEMLGGPSIFIFPPKPKDTLFISRTPEVTCLVVDLGPDDSDVQITWFVDNTQVYTAKTSPREEQFNSTYRVVSVLPILHQDWLKGKEFKCKVNSKSLPSPIERTISKAKGQPHEPQVYVLPPAQEELSRNKVSVTCLIKSFHPPDIAVEWEITGQPEPENNYRTTPPQLDSDGTYFVYSKLSVDRSHWQRGNTYTCSVSHEALHRHHTQKSLTQSPGK
With B7, the figures for the Kd in assay [1] and in assay [2] were 3.59 nM and 398 nM, respectively.

B8: feline IgG1a S252H/S428M (antibody, part only; not given: Variable domains, not shown: another chain or arm of the molecule; small tags and cut ends)
constant: ASTTAPSVFPLAPSCGTTSGATVALACLVLGYFPEPVTVSWNSGALTSGVHTFPAVLQASGLYSLSSMVTVPSSRWLSDTFTCNVAHPPSNTKVDKTVRKTDHPPGPKPCDCPKCPPPEMLGGPSIFIFPPKPKDTLHISRTPEVTCLVVDLGPDDSDVQITWFVDNTQVYTAKTSPREEQFNSTYRVVSVLPILHQDWLKGKEFKCKVNSKSLPSPIERTISKAKGQPHEPQVYVLPPAQEELSRNKVSVTCLIKSFHPPDIAVEWEITGQPEPENNYRTTPPQLDSDGTYFVYSKLSVDRSHWQRGNTYTCSVMHEALHSHHTQKSLTQSPGK
With B8, the equilibrium dissociation constant (Kd) worked out at 2.65 nM in assay [1] and 101 nM in assay [2].

B9: feline IgG1a S252H/Q311W (antibody, part only; not given: Variable domains, not shown: another chain or arm of the molecule; small tags and cut ends)
constant: ASTTAPSVFPLAPSCGTTSGATVALACLVLGYFPEPVTVSWNSGALTSGVHTFPAVLQASGLYSLSSMVTVPSSRWLSDTFTCNVAHPPSNTKVDKTVRKTDHPPGPKPCDCPKCPPPEMLGGPSIFIFPPKPKDTLHISRTPEVTCLVVDLGPDDSDVQITWFVDNTQVYTAKTSPREEQFNSTYRVVSVLPILHWDWLKGKEFKCKVNSKSLPSPIERTISKAKGQPHEPQVYVLPPAQEELSRNKVSVTCLIKSFHPPDIAVEWEITGQPEPENNYRTTPPQLDSDGTYFVYSKLSVDRSHWQRGNTYTCSVSHEALHSHHTQKSLTQSPGK
For B9, the Kd amounted to 6.04 nM in assay [1] and 25 nM in assay [2].

B10: feline IgG1a D312P/L314K (antibody, part only; not given: Variable domains, not shown: another chain or arm of the molecule)
constant: ASTTAPSVFPLAPSCGTTSGATVALACLVLGYFPEPVTVSWNSGALTSGVHTFPAVLQASGLYSLSSMVTVPSSRWLSDTFTCNVAHPPSNTKVDKTVRKTDHPPGPKPCDCPKCPPPEMLGGPSIFIFPPKPKDTLSISRTPEVTCLVVDLGPDDSDVQITWFVDNTQVYTAKTSPREEQFNSTYRVVSVLPILHQPWKKGKEFKCKVNSKSLPSPIERTISKAKGQPHEPQVYVLPPAQEELSRNKVSVTCLIKSFHPPDIAVEWEITGQPEPENNYRTTPPQLDSDGTYFVYSKLSVDRSHWQRGNTYTCSVSHEALHSHHTQKSLTQSPGK
Take B10: the Kd is 7.24 nM in assay [1] and 311 nM in assay [2].

B11: feline IgG1a S428Y/D312P (antibody, part only; not given: Variable domains, not shown: another chain or arm of the molecule; small tags and cut ends)
constant: ASTTAPSVFPLAPSCGTTSGATVALACLVLGYFPEPVTVSWNSGALTSGVHTFPAVLQASGLYSLSSMVTVPSSRWLSDTFTCNVAHPPSNTKVDKTVRKTDHPPGPKPCDCPKCPPPEMLGGPSIFIFPPKPKDTLSISRTPEVTCLVVDLGPDDSDVQITWFVDNTQVYTAKTSPREEQFNSTYRVVSVLPILHQPWLKGKEFKCKVNSKSLPSPIERTISKAKGQPHEPQVYVLPPAQEELSRNKVSVTCLIKSFHPPDIAVEWEITGQPEPENNYRTTPPQLDSDGTYFVYSKLSVDRSHWQRGNTYTCSVYHEALHSHHTQKSLTQSPGK
In the case of B11, the results for the Kd in assay [1] and in assay [2] were 34.1 nM and 2760 nM, respectively.

B12: feline IgG1a S252H/Q311Y (antibody, part only; not given: variable domains and light chain, not shown: another chain or arm of the molecule; small tags and cut ends)
constant: ASTTAPSVFPLAPSCGTTSGATVALACLVLGYFPEPVTVSWNSGALTSGVHTFPAVLQASGLYSLSSMVTVPSSRWLSDTFTCNVAHPPSNTKVDKTVRKTDHPPGPKPCDCPKCPPPEMLGGPSIFIFPPKPKDTLHISRTPEVTCLVVDLGPDDSDVQITWFVDNTQVYTAKTSPREEQFNSTYRVVSVLPILHYDWLKGKEFKCKVNSKSLPSPIERTISKAKGQPHEPQVYVLPPAQEELSRNKVSVTCLIKSFHPPDIAVEWEITGQPEPENNYRTTPPQLDSDGTYFVYSKLSVDRSHWQRGNTYTCSVSHEALHSHHTQKSLTQSPGK
For B12, the Kd in assay [1] stood at 12.1 nM; in assay [2] it was 36.5 nM.

B13: feline IgG1a S252H/D312P (antibody, part only; not given: variable domains, not shown: another chain or arm of the molecule; small tags and cut ends)
constant: ASTTAPSVFPLAPSCGTTSGATVALACLVLGYFPEPVTVSWNSGALTSGVHTFPAVLQASGLYSLSSMVTVPSSRWLSDTFTCNVAHPPSNTKVDKTVRKTDHPPGPKPCDCPKCPPPEMLGGPSIFIFPPKPKDTLHISRTPEVTCLVVDLGPDDSDVQITWFVDNTQVYTAKTSPREEQFNSTYRVVSVLPILHQPWLKGKEFKCKVNSKSLPSPIERTISKAKGQPHEPQVYVLPPAQEELSRNKVSVTCLIKSFHPPDIAVEWEITGQPEPENNYRTTPPQLDSDGTYFVYSKLSVDRSHWQRGNTYTCSVSHEALHSHHTQKSLTQSPGK
For B13, the Kd came to 3.9 nM in assay [1] and 26.7 nM in assay [2].

B14: feline IgG1a S252H/L314K (antibody, part only; not given: Variable domains, not shown: another chain or arm of the molecule; small tags and cut ends)
constant: ASTTAPSVFPLAPSCGTTSGATVALACLVLGYFPEPVTVSWNSGALTSGVHTFPAVLQASGLYSLSSMVTVPSSRWLSDTFTCNVAHPPSNTKVDKTVRKTDHPPGPKPCDCPKCPPPEMLGGPSIFIFPPKPKDTLHISRTPEVTCLVVDLGPDDSDVQITWFVDNTQVYTAKTSPREEQFNSTYRVVSVLPILHQDWKKGKEFKCKVNSKSLPSPIERTISKAKGQPHEPQVYVLPPAQEELSRNKVSVTCLIKSFHPPDIAVEWEITGQPEPENNYRTTPPQLDSDGTYFVYSKLSVDRSHWQRGNTYTCSVSHEALHSHHTQKSLTQSPGK
In the case of B14, the Kd was found to be 6.37 nM in assay [1] and 20 nM in assay [2].

B15: feline IgG1a D312A (antibody, part only; not given: Variable domains, not shown: another chain or arm of the molecule; small tags and cut ends)
constant: ASTTAPSVFPLAPSCGTTSGATVALACLVLGYFPEPVTVSWNSGALTSGVHTFPAVLQASGLYSLSSMVTVPSSRWLSDTFTCNVAHPPSNTKVDKTVRKTDHPPGPKPCDCPKCPPPEMLGGPSIFIFPPKPKDTLSISRTPEVTCLVVDLGPDDSDVQITWFVDNTQVYTAKTSPREEQFNSTYRVVSVLPILHQAWLKGKEFKCKVNSKSLPSPIERTISKAKGQPHEPQVYVLPPAQEELSRNKVSVTCLIKSFHPPDIAVEWEITGQPEPENNYRTTPPQLDSDGTYFVYSKLSVDRSHWQRGNTYTCSVSHEALHSHHTQKSLTQSPGK
As to B15, the Kd in assay [1] amounted to 6.95 nM; in assay [2], 8180 nM.
